Test results reported in US9051358B2, “Nonnatural collagen-like protein and use thereof” (ZHEJIANG UNIVERSITY, priority 2009, dated 2015).

What was measured:
[1] = test system: G-CSF-dependent cell line NFS60; test: In vitro bioactivity in G-CSF-dependent cell line NFS60 by MTT assay; format: cell-based; settings: for Bioactivity (IU/mg): Table 4; for Relative activity (in molar basis)(%): relative to G-CSF
Protocol: In vitro bioactivity of the rGLK1164/G-CSF fusion protein was measured in G-CSF-dependent cell line NFS60 by MTT assay (Chinese Pharmacopoeia, 2005 edition, three sections).

[2] = In vitro stability, shock at 40° C., SEC-HPLC analysis; format: physicochemical; settings: for Purity (%) (SEC-HPLC analysis): 1 mg/ml in 20 mM PB pH6.0, 40° C.; for protein content after incubation (%): 40° C.; for in vitro stability (aggregates, total protein content): shock 48 hours at 40° C.
Protocol: Reference rhG-CSF and rGLK1164/G-CSF were dissolved in 20 mM PB, pH6.0 to the protein concentration of 1 mg/ml. samples were sterile filtered and distributed to penicillin bottles. […]

[3] = Immunogenicity study in mice, serum antibody detection by ELISA; format: in vivo, Balc/C mice; settings: sc once a week, 2.5 nmol
Protocol: Balc/C mice (n=12) with a average weight of about 25 g were evenly divided into 4 groups. 2.5 nmol rGLK1164, 2.5 nmol rGLK1164/G-CSF, and the same volume of saline were administered to a corresponding group respectively by subcutaneous injection once a week. Serum samples were collected in week 4 and week 9(a week after the eighth immunization) and were saved separately at −70° C.
rGLK1164 or G-CSF was diluted with 0.2M carbonate buffer (pH9.6) to 1 μg/ml. Each well of the ELISA microplate was filled with 100 μl dilution and coated overnight at 4° C., and then the wells were washed with PBST for 3 times(5 minutes each time). The washed wells were sealed by 5% nonfat dry milk for 1 hour, and then washed three times with PBST (5 minutes each time). The preserved serum of each group was added to the well at a rate of 1:50,1:200,1:800, and then the microplate was incubated at 37° C. for 1 hour, and for one increased hour after the secondary antibody, HRP-conjugated goat anti-mouse antibody was added. After the microplate was shook to dry and washed by PBST, it was colored with TMB-HCL and detected under the illumination of 450 nm. Meanwhile, 200 ng/ml of rabbit anti-human G-CSF antibody was used as a positive control.

white blood cells = test: Pharmacodynamic study, number of white blood cells in SD rats; format: in vivo
Source text: (§1) The pharmacokinetic parameters and pharmacodynamic properties of rhG-CSF (Filgrastim, Amgen, USA), rHSA/G-CSF (prepared according to U.S. Pat. No. 5,876,969), rGLK1164/G-CSF and rGLK1164 in SD rats were compared.
(§2) Adult SPF SD rats (approximately 300-350 g) from the Center of Experimental Animals of Chinese Academy of Sciences in Shanghai were divided into 8 groups and administered according to Table 3. Blood samples were collected from the caudal veins of rats. The number of white blood cells were counted, and serum was saved at −20° C. after separated by centrifugation (3000rpm for 5 minutes).

[4] = Pharmacokinetics of G-CSF proteins in SD rats (ELISA); format: in vivo; settings: for Half-life: SD rats; for detectability in blood after subcutaneous injection: blood concentration-time curve
Source text: as §1, §2
The plasma concentration detection of rhG-CSF, rGLK1164/G-CSF and rHSA/G-CSF was carried out using ELISA (for the specific operations, refer to the operating manual of Human G-CSF DuoSet kit Human G-CSF ELISA Construction Kit (ANTIGENIX)). The MicroCal Origin software was used to draw standard curve according to four-parameter logistic fitting method, and calculate related statistical parameters by regression analysis. The 3P87 software was used to calculate the PK parameters.
GLK/G-CSFs with different structures were prepared in a similar way, and their activity, half-life in SD rats and other relevant parameters were compared.

| Molecule | in vitro activity [1] | Bioactivity (IU/mg) [1] | Relative activity (in molar basis)(%) [1] [%] | Purity (%) (SEC-HPLC analysis) ([2]; 0 h) | protein content after incubation (%) ([2]; 0 h) | Purity (%) (SEC-HPLC analysis) ([2]; 24 h) | protein content after incubation (%) ([2]; 24 h) | Purity (%) (SEC-HPLC analysis) ([2]; 48 h) | protein content after incubation (%) ([2]; 48 h) | in vitro stability (aggregates, total protein content) [2] | serum anti-G-CSF antibody ([3]; plate coated by G-CSF) | serum anti-rGLK1164 antibody ([3]; plate coated by rGLK1164) | number of white blood cells (white blood cells; 48 hours after an injection) | extent and duration of white blood cell increase versus rHSA/G-CSF (white blood cells; same dosage) | Half-life [4] [h] | terminal half-life ([4]; administered subcutaneously in rats) [h] | detectability in blood after subcutaneous injection [4] |
| --- | --- | --- | --- | --- | --- | --- | --- | --- | --- | --- | --- | --- | --- | --- | --- | --- | --- |
| rGLK1164/G-CSF: fusion protein of GLK1164 and hG-CSF (SEQ ID NO: 6) (protein, rGLK116 tetramer/G-CSF) GPPGEQGKPGNQGEPGNPGSPGQPGNPGQPGSPGNPGQPGNEGPQGSQGNPGQPGEPGSNGQPGQPGQNGKNGQPGSPGSQGSPGNQGSPGNQGQPGNKGEQGKPGNQGPAGEQGKPGNQGEPGNPGSPGQPGNPGQPGSPGNPGQPGNEGPQGSQGNPGQPGEPGSNGQPGQPGQNGKNGQPGSPGSQGSPGNQGSPGNQGQPGNKGEQGKPGNQGPAGEQGKPGNQGEPGNPGSPGQPGNPGQPGSPGNPGQPGNEGPQGSQGNPGQPGEPGSNGQPGQPGQNGKNGQPGSPGSQGSPGNQGSPGNQGQPGNKGEQGKPGNQGPAGEQGKPGNQGEPGNPGSPGQPGNPGQPGSPGNPGQPGNEGPQGSQGNPGQPGEPGSNGQPGQPGQNGKNGQPGSPGSQGSPGNQGSPGNQGQPGNKGEQGKPGNQGPAGGSGGTPLGPASSLPQSFLLKCLEQVRKIQGDGAALQEKLCATYKLCHPEELVLLGHSLGIPWAPLSSCPSQALQLAGCLSQLHSGLFLYQGLLQALEGISPELGPTLDTLQLDVADFATTIWQQMEELGMAPALQPTQGAMPAFASAFQRRAGGVLVASHLQSFLEVSYRVLRHLAQP | about 3.3×10^7 IU/mg | 0.33 × 10^8 IU/mg | 146 | 99.5 | 100 | 98.7 | 97.8 | 97.5 | 96.7 | changed little | anti-G-CSF antibody is produced | no anti-rGLK1164 antibody produced | increased significantly | no significant difference | >7 | 10 | could still be detected at 72 hours |
| rGLK420/G-CSF: fusion protein of GLK420 and G-CSF (SEQ ID NO: 10) (protein, GLK420/G-CSF, fusion protein) GPPGEDGDKGEIGEPGQKGSKGDKGEQGPPGPTGPQGPIGQPGPSGADGEPGPRGQQGLFGQKGDEGPRGFPGPPGPVGLQGLPGPPGEKGETGDVGQMGPPGPPGPRGPSGAPGADGPQGPPGGIGNPGAVGEKGEPGEAGEPGLPGEGGPPGPKGERGEKGESGPSGAAGPPGPKGPPGDDGPKGSPGPVGFPGDPGPPGEPGPAGQDGPPGDKGDDGEPGQTGSPGPTGEPGPSGPPGKRGPPGPAGPEGRQGEKGAKGEAGLEGPPGKTGPIGPQGAPGKPGPDGLRGIPGPVGEQGLPGSPGPDGPPGPMGPPGLPGLKGDSGPKGEKGHPGLIGLIGPPGEQGEKGDRGLPGPQGSSGPKGEQGITGPSGPIGPPGPPGLPGPPGPKGAKGSSGPTGPKGEAGHPGPPGPPGPPTPLGPASSLPQSFLLKCLEQVRKIQGDGAALQEKLCATYKLCHPEELVLLGHSLGIPWAPLSSCPSQALQLAGCLSQLHSGLFLYQGLLQALEGISPELGPTLDTLQLDVADFATTIWQQMEELGMAPALQPTQGAMPAFASAFQRRAGGVLVASHLQSFLEVSYRVLRHLAQP | – | 0.28 × 10^8 IU/mg | 129 | – | – | – | – | – | – | – | – | – | – | – | >7 | – | – |
| rhG-CSF: rhG-CSF (Filgrastim, Amgen, USA) (protein, UniProt P09919 31-207, looked up, filgrastim, N-terminal Met) Granulocyte …: TPLGPASSLPQSFLLKCLEQVRKIQGDGAALQEKLVSECATYKLCHPEELVLLGHSLGIPWAPLSSCPSQALQLAGCLSQLHSGLFLYQGLLQALEGISPELGPTLDTLQLDVADFATTIWQQMEELGMAPALQPTQGAMPAFASAFQRRAGGVLVASHLQSFLEVSYRVLRHLAQP | – | 0.7 × 10^8 IU/mg | 100 | 99.8 | 100 | 94.3 | 91.2 | 85.2 | 68.9 | a large number of polymeric aggregates were formed and the total protein content was also decreased significantly | – | – | – | – | 1.7 | – | couldn't be detected 24 hours later |
